The RNAGym collection of RNA variant scans (doi:10.1073/pnas.2313332121)
Variants at the floor of the assay were thinned out.

B1: TPR 5TU (parent)
chain: GGAUCUUCUCGAUCUAACAAAAAAGACAAAUCUGCCACAAAGCUUGAGAGCAUCUUCGGAUGCAGAGGCGGCAGCCUUCGGUGGCGCGAUAGCGCCAACGUUCUCAACUAUGACACGCAAAACGCGUGCUCCGUUGAAUGGAGUUUAUCAUG

Variants of: B1
Test: polymerase ribozyme fitness, log enrichment relative to wild type (log ratio); higher = more active; in vitro selection for triplet polymerase activity
How it was run: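 One round of in vitro selection, in triplicate, was applied to PCR-built, transcribed mutant libraries of each subunit of a heterodimeric triplet polymerase ribozyme. The steps were annealing with a biotinylated primer, partner subunit and triplets, incubation frozen at −7 °C, gel excision of extended constructs, streptavidin-bead capture and RT-PCR. Fitness is the logarithm, base 2, of genotype enrichment over wild-type enrichment from inverse-variance-weighted replicate averages of Illumina-sequenced inputs and outputs, keeping genotypes with ≥10 input reads and ≥1 read per output.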
For GGAUCUUCUCGAUCUAACAAAAAAGACAAAUCUGCCACAAAGCUUGAGAGCAUCUUCGGAUGCAGAGGCGGCAGCCUUCGGUGGCGCGAUAGCGCUAACGUUCUCAACUAUGACACGCAAAACCCGUGCUCCGUUGAAUGGAGUUUAUCAUG [C96U G124C], the “polymerase ribozyme fitness (log ratio)” value was -0.743.
For GGAUCUUCUCGAUCUAACAAAAAAGACAAAUCUGCCACAAAGCUUGAGAGCAUCUUCGGAUGCAGAGGCGGCAGCCUUCGGUGGCGCGAUAGCGCUAACGGUCUCAACUAUGACACGCAAAACGCGUGCUCCGUUGAAUGGAGUUUAUCAUG [C96U U101G], the “polymerase ribozyme fitness (log ratio)” value was 0.195.
For GGAUCUUCUCGAUCUAACAAAAAAGACAAAUCUGCCACAAAGCUUGAGAGCAUCUUCGGAUGCAGAGGCGGCAGCCUUCGGUGGCGCGAUAGCGCUAACGUUCUCAACUAUGACACGCAAAACGGGUGCUCCGUUGAAUGGAGUUUAUCAUG [C96U C125G], the “polymerase ribozyme fitness (log ratio)” value was -0.976.
In the case of GGAUCUUCUCGAUCUAACAAAAAAGACAAAUCUGCCACAAAGCUUGAGAGCAUCUUCGGAUGCAGAGGCGGCAGCCUUCGGUGGCGCGAUAGCGCUAACGUUCUCAACUAUGAUACGCAAAACGCGUGCUCCGUUGAAUGGAGUUUCUCAUG [C96U C114U A147C], the “polymerase ribozyme fitness (log ratio)” value is reported as -4.07.
With GGAUCUUCUCGAUCUAACAAAAAAGACAAAUCUGCCACAAAGCUUGAGAGCAUCUUCGGAUGCAGAGGCGGCAGCCUUCGGUGGCGCGAUAGCGCUAACGUUCUCAACUAUGACACGCAAAACGCGUACGCCGUUGAAUGGAGUUUAUCAUG [C96U G128A U130G] the “polymerase ribozyme fitness (log ratio)” value was no more than -4.2.
For GGAUCUUCUCGAUCUAACAAAAAAGACAAAUCUGCCACAAAGCUUGAGAGCAUCUUCGGAUGCAGAGGCGGCAGCCUUCGGUGGCGCGAUAGCGCUAACGUUCUCAACUAUGACAGGCAAAACGCGUGCUCCGUUGAAUGGAGUUUAUCAUG [C96U C116G], the “polymerase ribozyme fitness (log ratio)” value was 0.963.
In the case of GGAUCUUCUCGAUCUAACAAAAAAGACAAAUCUGCCACAAAGCUUGAGAGCAUCUUCGGAUGCAGAGGCGGCAGCCUUCGGUGGCGCGAUAGCGCUAACGUUCUCAACUAUGACAUGCAAAACGCGUGCUCCGUUGAAUGGAGUUUAUCAUG [C96U C116U], the “polymerase ribozyme fitness (log ratio)” value is reported as -0.186.
For GGAUCUUCUCGAUCUAACAAAAAAGACAAAUCUGCCACAAAGCUUGAGAGCAUCUUCGGAUGCAGAGGCGGCAGCCUUCGGUGGCGCGAUAGCGCUAACCUUCUCAACUAUGACACGCAAAACGCGUGCUCCGUUGAAUGGAGUUUAUCAUG [C96U G100C], the “polymerase ribozyme fitness (log ratio)” value was -3.97.
With GGAUCUUCUCGAUCUAACAAAAAAGACAAAUCUGCCACAAAGCUUGAGAGCAUCUUCGGAUGCAGAGGCGGCAGCCUUCGGUGGCGCGAUAGCGCUAACGUUCUCAACUAUGACACGCAAAACGCGUGCUCCGUUGAAUUGAGUUUAUCAUG [C96U G140U] the “polymerase ribozyme fitness (log ratio)” value was -3.33.
With GGAUCUUCUCGAUCUAACAAAAAAGACAAAUCUGCCACAAAGCUUGAGAGCAUCUUCGGAUGCAGAGGCGGCAGCCUUCGGUGGCGCGAUAGCGCUAACGUUCUCAACUAUGACACGCAAAACGCGUGCUCCGUUGAAUCGAGUUUAUCAUG [C96U G140C] the “polymerase ribozyme fitness (log ratio)” value was -3.73.
For GGAUCUUCUCGAUCUAACAAAAAAGACAAAUCUGCCACAAAGCUUGAGAGCAUCUUCGGAUGCAGAGGCGGCAGCCUUCGGUGGCGCGAUAGCGCUAACGUGCUCAACUAUGACACGCAAAACGCGUGCUCCGUUGAAUGCAGUUUAUCAUG [C96U U102G G141C], the “polymerase ribozyme fitness (log ratio)” value was -4.12.
In the case of GGAUCUUCUCGAUCUAACAAAAAAGACAAAUCUGCCACAAAGCUUGAGAGCAUCUUCGGAUGCAGAGGCGGCAGCCUUCGGUGGCGCGAUAGCGCUAACGUUCUCAACUAUGACACGCAAAACGCGUUCUCCGUUGAAUGGAGUUUAUCAUG [C96U G128U], the “polymerase ribozyme fitness (log ratio)” value is reported as -3.45.
For GGAUCUUCUCGAUCUAACAAAAAAGACAAAUCUGCCACAAAGCUUGAGAGCAUCUUCGGAUGCAGAGGCGGCAGCCUUCGGUGGCGCGAUAGCGCUAACGUUCUCAACUAUGACACGCAAAACGCGUGCUCCGUUAAAUGGAGUUUAUCAUG [C96U G136A], the “polymerase ribozyme fitness (log ratio)” value was 0.246.
For GGAUCUUCUCGAUCUAACAAAAAAGACAAAUCUGCCACAAAGCUUGAGAGCAUCUUCGGAUGCAGAGGCGGCAGCCUUCGGUGGCGCGAUAGCGCUAACGUUCUCAACUAUGACACGCAAAACGCGUGCUCCGUUUAAUGGAGUUUAUCAUG [C96U G136U], the “polymerase ribozyme fitness (log ratio)” value was -2.74.
For GGAUCUUCUCGAUCUAACAAAAAAGACAAAUCUGCCACAAAGCUUGAGAGCAUCUUCGGAUGCAGAGGCGGCAGCCUUCGGUGGCGCGAUAGCGCUAACGUUCUCAACUAUGACACGCAAAACGCGUGCUCCGUUGAAUGUAGUUUAUCAUG [C96U G141U], the “polymerase ribozyme fitness (log ratio)” value was -0.301.
In the case of GGAUCUUCUCGAUCUAACAAAAAAGACAAAUCUGCCACAAAGCUUGAGAGCAUCUUCGGAUGCAGAGGCGGCAGCCUUCGGUGGCGCGAUAGCGCUAACGUUCUCAACUAUGACACGCAAAACGCGUUCUCCGUUGAAUGGAGUUUCUCAUG [C96U G128U A147C], the “polymerase ribozyme fitness (log ratio)” value is reported as -3.7.
In the case of GGAUCUUCUCGAUCUAACAAAAAAGACAAAUCUGCCACAAAGCUUGAGAGCAUCUUCGGAUGCAGAGGCGGCAGCCUUCGGUGGCGCGAUAGCGCUAACGUUCUCAACUAUGACACGCAAAACGCGCGCUCCGUUGAAUGGAGUUUAUCAUG [C96U U127C], the “polymerase ribozyme fitness (log ratio)” value is reported as -1.34.
With GGAUCUUCUCGAUCUAACAAAAAAGACAAAUCUGCCACAAAGCUUGAGAGCAUCUUCGGAUGCAGAGGCGGCAGCCUUCGGUGGCGCGAUAGCGCUAACGUUCUCAACUAUGACACGCAAAACGAGUGCUCCGUUGAAUGGAGGUUAUCAUG [C96U C125A U144G] the “polymerase ribozyme fitness (log ratio)” value was -0.161.
In the case of GGAUCUUCUCGAUCUAACAAAAAAGACAAAUCUGCCACAAAGCUUGAGAGCAUCUUCGGAUGCAGAGGCGGCAGCCUUCGGUGGCGCGAUAGCGCUAACGUUCUCAACUAUGACACGUAAAACGCGUGCUCCGUUGAAUGGAGUUUAUCAUG [C96U C118U], the “polymerase ribozyme fitness (log ratio)” value is reported as -0.211.
